Series [1] has as its target T1, OsPIL15-His (Oryza sativa L. cv. Nipponbare, UniProt Q0JNI9 1-637).
T1 sequence: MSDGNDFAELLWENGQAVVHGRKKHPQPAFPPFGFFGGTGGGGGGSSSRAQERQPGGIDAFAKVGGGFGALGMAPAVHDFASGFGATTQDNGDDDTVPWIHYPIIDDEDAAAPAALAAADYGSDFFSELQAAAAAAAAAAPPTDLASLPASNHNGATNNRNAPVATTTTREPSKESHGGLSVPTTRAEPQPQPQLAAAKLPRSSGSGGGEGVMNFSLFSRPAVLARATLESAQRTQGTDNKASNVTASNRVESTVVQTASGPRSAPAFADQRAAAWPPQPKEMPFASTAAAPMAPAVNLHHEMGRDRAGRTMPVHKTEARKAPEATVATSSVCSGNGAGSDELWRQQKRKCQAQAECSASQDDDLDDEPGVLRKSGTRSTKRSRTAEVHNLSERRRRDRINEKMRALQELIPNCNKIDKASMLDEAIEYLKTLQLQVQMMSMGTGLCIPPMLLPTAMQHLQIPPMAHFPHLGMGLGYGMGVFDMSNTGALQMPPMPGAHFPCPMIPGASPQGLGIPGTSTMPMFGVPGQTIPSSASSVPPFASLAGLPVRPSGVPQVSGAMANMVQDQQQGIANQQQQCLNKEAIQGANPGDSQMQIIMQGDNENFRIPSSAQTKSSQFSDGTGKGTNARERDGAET
The experiment in a line: EMSA; EMSA: Beyotime kit binding buffer (composition, salt and pH not stated), 30 min at room temperature, 6% native polyacrylamide gel. Conditions: protein: recombinant; tags: His (pET28a); chain copies: 2; label: 3' biotin; blunt. In general terms: Mobility shift assays separate free from complexed probe on a gel.

In series [2] the target is T1, OsPIL15-His. The experiment in a line: EMSA; strong signal; EMSA: Beyotime kit binding buffer (composition, salt and pH not stated), 30 min at room temperature, 6% native polyacrylamide gel. As to conditions: protein: recombinant; tags: His (pET28a); chain copies: 2; label: 3' biotin; blunt.

B1: G-box probe (dsDNA)
DNA 1: TCTAATGACACGTGAGCAAGTCC
DNA 2: GGACTTGCTCACGTGTCATTAGA
On to B1, for which the binding result with OsPIL15-His [1] was “no binding”.

B2: N2-box probe (dsDNA)
DNA 1: TCTAATGACACGAGAGCAAGTCC
DNA 2: GGACTTGCTCTCGTGTCATTAGA
Turning to B2, the binding result with OsPIL15-His [1] was “no binding”.

B3: N1-box probe (dsDNA)
DNA 1: TCTAATGACACGCGAGCAAGTCC
DNA 2: GGACTTGCTCGCGTGTCATTAGA
On to B3, for which the binding result with OsPIL15-His [2] is reported as “binds”.

B4: Mutant probe 1 (dsDNA)
DNA 1: AATACAGCCGCGACTATCTC
DNA 2: GAGATAGTCGCGGCTGTATT
B4: the binding result with OsPIL15-His [1] is recorded as “no binding”.

B5: Mutant probe 2 (dsDNA)
DNA 1: AATACAGGCAGCCCTATCTC
DNA 2: GAGATAGGGCTGCCTGTATT
For B5, the binding result with OsPIL15-His [1] is given as “no binding”.

(Values after paper PMC6662305, “The basic helix‐loop‐helix transcription factor, OsPIL15, regulates grain size via directly targeting a purine permease gene OsPUP7 in rice”.)
